This note sets out measurements from patent US20210155676A1 (published 2021).

Changes are numbered by the printed parent chain.

One may read the EC50 as the concentration needed to bring the measured effect to its halfway point.

B1: PGT121.61 (antibody)
heavy: QMQLQESGPGLVKPSETLSLTCSVSGASISDSYWSWIRRSPGKGLEWIGYVHKSGDTNYNPSLKSRVHLSLDTSKNQVSLSLTGVTAADSGKYYCARTLHGRRIYGIVAFNEWFTYFYMDVWGTGTQVTVSSASTKGPSVFPLAPSSKSTSGGTAALGCLVKDYFPEPVTVSWNSGALTSGVHTFPAVLQSSGLYSLSSVVTVPSSSLGTQTYICNVNHKPSNTKVDKKVEPKSCDKTHTCPPCPAPELLAGPDVFLFPPKPKDTLMISRTPEVTCVVVDVSHEDPEVKFNWYVDGVEVHNAKTKPREEQYNSTYRVVSVLTVLHQDWLNGKEYKCKVSNKALPLPEEKTISKAKGQPREPQVYTLPPSREEMTKNQVSLTCLVKGFYPSDIAVEWESNGQPENNYKTTPPVLDSDGSFFLYSKLTVDKSRWQQGNVFSCSVLHEALHSHYTQKSLSLSPGK
light: SDISVAPGETARISCGEKSLGSRAVQWYQHRAGQAPSLIIYNNQDRPSGIPERFSGSPDSRPGTTATLTITSVEAGDEADYYCHIWDSRVPTKWVFGGGTKLTVLGQPKAAPSVTLFPPSSEELQANKATLVCLISDFYPGAVTVAWKADSSPVKAGVETTTPSKQSNNKYAASSYLSLTPEQWKSHRSYSCQVTHEGSTVEKTVAPTECS
B2: PGT121.60 (antibody)
heavy: B1 heavy
light: not shown
B3: PGT121.42 (antibody, V domains shown)
VH: QMQLQESGPGLVKPSETLSLTCSVSGASISDSYWSWIRRSPGKGLEWIGYVHKSGDTNYNPSLKSRVHLSLDTSKNQVSLSLSSVTAADSGKYYCARTLHGRRIYGIVAFNEWFTYFYMDVWGKGTQVTVSS
VL: SDISVAPGETARISCGEKSLGSRAVQWYQHRAGQAPSLIIYNNQDRPSGIPERFSGSPDSPFGTTATLTITSVEAGDEADYYCHIWDSRVPTKWVFGGGTTLTVLG
B4: PGT121.65 (antibody, V domains shown)
VH: B3 VH with M2L, S32A, S83T, S84G, T98A, K124T
VL: B3 VL with P61R, F62P, T101K

The target of the assay is gp120. The assay is described as follows: ELISA; geometric mean over gp120 from 7 HIV strains.
As for B1, it took 1.65 nM to reach a half-maximal effect (EC50).

B2 displayed an EC50 of 1.79 nM.

B3 registered an EC50 of 1.57 nM.

For B4, the EC50 amounted to 2.14 nM.
